Assay results: PMC11530851

Biological target: SKIV2L (hSKI complex subunit);TTC37 (hSKI complex subunit);WDR61 (hSKI complex subunit) (human;human;human, UniProt Q15477;Q6PGP7;Q9GZS3 1-1246;1-1564;1-305, ||)
Assay: EMSA; 2 mM Mg2+; 25 mM Hepes-KOH pH 7.6, 2 mM Mg acetate, 50 mM NaCl, 1 mM DTT, 0.1 mg/ml BSA, 1 nM substrate, 37 C 30 min; 0.7% agarose gel at 4 C

B1: dsRNA (ss poly(A) + Css27) (dsRNA)
RNA 1: CCCCACCACCAUCACUUAAAAAAAAAA
RNA 2: UUUUUUUUUUAAGUGAUGGUGGUGGGG
Does B1 bind?
Result: no binding

B2: Non-TEL18 (ssDNA)
DNA: AGCGTATCCGTTCAGTTG
For B2, which Kd is on record?
The Kd was 30 nM.

B3: ss poly(A) DNA (ssDNA)
DNA: CCCCACCACCATCACTTAAAAAAAAAA
Does B3 bind?
Result: binds

B4: ss poly(A) (ssRNA)
RNA: CCCCACCACCAUCACUUAAAAAAAAAA
Does B4 bind?
Result: binds

B5: TEL18 (ssDNA)
DNA: GGTTAGGGTTAGGGTTAG
Which Kd does the source give for B5 here?
The Kd was 12 nM.
